Numbering of substitutions follows the chain as printed. Numbered stars: 1 amine (or outer) side, 2 acyl side, 3 side chain; on linkers, the order of the positions; unused ones are H or OH. Bridge positions count the residues as written; N and C are the ends. Square brackets hold non-standard residues; d marks the D form. * marks the point of attachment. C20 diacid = O=C(O)CCCCCCCCCCCCCCCCCCC(=O)*; γGlu = O=C(O)[C@H](CCC(=O)[*:2])N[*:1]
B1: Example 16 (peptide)
peptide: {C20 diacid}-[γGlu]EKEKEKGSHRRSSCFHGRIDRIHAQSGLGCNSFRH-NH2
modifications: disulfide 15-31
SMILES: CC[C@H](C)[C@@H]1NC(=O)[C@H](CCCNC(=N)N)NC(=O)[C@H](CC(=O)O)NC(=O)[C@H]([C@@H](C)CC)NC(=O)[C@H](CCCNC(=N)N)NC(=O)CNC(=O)[C@H](Cc2c[nH]cn2)NC(=O)[C@H](Cc2ccccc2)NC(=O)[C@@H](NC(=O)[C@H](CO)NC(=O)[C@H](CO)NC(=O)[C@H](CCCNC(=N)N)NC(=O)[C@H](CCCNC(=N)N)NC(=O)[C@H](Cc2c[nH]cn2)NC(=O)[C@H](CO)NC(=O)CNC(=O)[C@H](CCCCN)NC(=O)[C@H](CCC(=O)O)NC(=O)[C@H](CCCCN)NC(=O)[C@H](CCC(=O)O)NC(=O)[C@H](CCCCN)NC(=O)[C@H](CCC(=O)O)NC(=O)CC[C@H](NC(=O)CCCCCCCCCCCCCCCCCCC(=O)O)C(=O)O)CSSC[C@@H](C(=O)N[C@@H](CC(N)=O)C(=O)N[C@@H](CO)C(=O)N[C@@H](Cc2ccccc2)C(=O)N[C@@H](CCCNC(=N)N)C(=O)N[C@@H](Cc2c[nH]cn2)C(N)=O)NC(=O)CNC(=O)[C@H](CC(C)C)NC(=O)CNC(=O)[C@H](CO)NC(=O)[C@H](CCC(N)=O)NC(=O)[C@H](C)NC(=O)[C@H](Cc2c[nH]cn2)NC1=O
B2: Example 18 (peptide)
peptide: {C20 diacid}-[γGlu]EKEKEKGSHRRSSCFGGRIDRIGAQSGLGCPSFRH-NH2
modifications: disulfide 15-31
SMILES: CC[C@H](C)[C@@H]1NC(=O)[C@H](CCCNC(=N)N)NC(=O)[C@H](CC(=O)O)NC(=O)[C@H]([C@@H](C)CC)NC(=O)[C@H](CCCNC(=N)N)NC(=O)CNC(=O)CNC(=O)[C@H](Cc2ccccc2)NC(=O)[C@@H](NC(=O)[C@H](CO)NC(=O)[C@H](CO)NC(=O)[C@H](CCCNC(=N)N)NC(=O)[C@H](CCCNC(=N)N)NC(=O)[C@H](Cc2c[nH]cn2)NC(=O)[C@H](CO)NC(=O)CNC(=O)[C@H](CCCCN)NC(=O)[C@H](CCC(=O)O)NC(=O)[C@H](CCCCN)NC(=O)[C@H](CCC(=O)O)NC(=O)[C@H](CCCCN)NC(=O)[C@H](CCC(=O)O)NC(=O)CC[C@H](NC(=O)CCCCCCCCCCCCCCCCCCC(=O)O)C(=O)O)CSSC[C@@H](C(=O)N2CCC[C@H]2C(=O)N[C@@H](CO)C(=O)N[C@@H](Cc2ccccc2)C(=O)N[C@@H](CCCNC(=N)N)C(=O)N[C@@H](Cc2c[nH]cn2)C(N)=O)NC(=O)CNC(=O)[C@H](CC(C)C)NC(=O)CNC(=O)[C@H](CO)NC(=O)[C@H](CCC(N)=O)NC(=O)[C@H](C)NC(=O)CNC1=O
B3: HOOC-(CH2)18-CO-(γGlu)-EKEKEKG-PEG24-EK-βAla-RSS[CFGKRIDRIGHYSGLGC]PSFRHGGKSSGAPPPS-NH2 (peptide)
peptide: EKXRSSCFGKRIDRIGHYSGLGCPSFRHGGKSSGAPPPS
modifications: N-terminus acylated with HOOC-(CH2)18-CO-(γGlu)-; PEG24 after EKEKEKG; βAla; thioacetal linkage between the two bracketed Cys; C-terminal amide
B4: HOOC-(CH2)18-CO-(γGlu)-EKEKEKG-PEG24-EK-βAla-RSS[CFGKRIDRIGHYSGLGC]PSFRHGSPSSGAPPPS-NH2 (peptide)
peptide: B3 peptide with G30S, K31P
modifications: N-terminus acylated with HOOC-(CH2)18-CO-(γGlu)-; PEG24 after EKEKEKG; βAla; thioacetal linkage between the two bracketed Cys; C-terminal amide
B5: HOOC-(CH2)18-CO-(γGlu)-EKEKEKG-(AEEA)6-S-4Pal-RRSS[CFGKRIDRIGHYSGLGC]PSFRHGGKSSGAPPPS-NH2 (peptide)
peptide: B3 peptide with E1S, K2X, X3R
modifications: N-terminus acylated with HOOC-(CH2)18-CO-(γGlu)-; (AEEA)6 after EKEKEKG; 4Pal; thioacetal linkage between the two bracketed Cys; C-terminal amide

Assays:
Assay in all cases: cell-based or functional assay
[1] = biological target: T1, rat NPRA (rat, UniProt P18910 29-1057)
T1 sequence (looked up): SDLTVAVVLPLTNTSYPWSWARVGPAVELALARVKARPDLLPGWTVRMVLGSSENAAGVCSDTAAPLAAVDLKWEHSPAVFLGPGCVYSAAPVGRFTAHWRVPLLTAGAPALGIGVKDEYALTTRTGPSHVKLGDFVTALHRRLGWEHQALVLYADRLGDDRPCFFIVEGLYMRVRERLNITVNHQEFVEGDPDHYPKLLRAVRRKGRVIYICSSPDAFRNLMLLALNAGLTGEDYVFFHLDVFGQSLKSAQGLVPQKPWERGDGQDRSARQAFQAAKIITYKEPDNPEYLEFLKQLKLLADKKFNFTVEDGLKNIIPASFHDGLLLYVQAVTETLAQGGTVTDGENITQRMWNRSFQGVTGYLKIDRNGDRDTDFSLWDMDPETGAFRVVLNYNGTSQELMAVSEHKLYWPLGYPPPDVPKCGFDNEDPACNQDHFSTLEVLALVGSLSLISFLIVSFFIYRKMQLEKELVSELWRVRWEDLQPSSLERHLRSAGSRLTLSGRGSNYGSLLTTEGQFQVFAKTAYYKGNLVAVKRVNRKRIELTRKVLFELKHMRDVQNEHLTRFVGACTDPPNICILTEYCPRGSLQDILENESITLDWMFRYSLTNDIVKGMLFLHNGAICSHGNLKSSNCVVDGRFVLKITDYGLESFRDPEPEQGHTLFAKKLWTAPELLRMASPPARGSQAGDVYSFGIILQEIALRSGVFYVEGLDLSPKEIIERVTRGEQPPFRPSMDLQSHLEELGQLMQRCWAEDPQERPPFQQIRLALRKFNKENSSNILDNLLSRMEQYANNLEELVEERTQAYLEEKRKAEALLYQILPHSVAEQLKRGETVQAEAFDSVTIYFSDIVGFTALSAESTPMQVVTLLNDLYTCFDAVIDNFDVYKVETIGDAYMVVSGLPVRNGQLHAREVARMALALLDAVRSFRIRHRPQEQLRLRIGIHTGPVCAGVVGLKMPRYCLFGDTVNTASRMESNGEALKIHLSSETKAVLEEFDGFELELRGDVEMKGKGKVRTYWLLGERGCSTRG

[2] = biological target: T2, human NPRA (human, UniProt P16066 33-1061)
T2 sequence (looked up): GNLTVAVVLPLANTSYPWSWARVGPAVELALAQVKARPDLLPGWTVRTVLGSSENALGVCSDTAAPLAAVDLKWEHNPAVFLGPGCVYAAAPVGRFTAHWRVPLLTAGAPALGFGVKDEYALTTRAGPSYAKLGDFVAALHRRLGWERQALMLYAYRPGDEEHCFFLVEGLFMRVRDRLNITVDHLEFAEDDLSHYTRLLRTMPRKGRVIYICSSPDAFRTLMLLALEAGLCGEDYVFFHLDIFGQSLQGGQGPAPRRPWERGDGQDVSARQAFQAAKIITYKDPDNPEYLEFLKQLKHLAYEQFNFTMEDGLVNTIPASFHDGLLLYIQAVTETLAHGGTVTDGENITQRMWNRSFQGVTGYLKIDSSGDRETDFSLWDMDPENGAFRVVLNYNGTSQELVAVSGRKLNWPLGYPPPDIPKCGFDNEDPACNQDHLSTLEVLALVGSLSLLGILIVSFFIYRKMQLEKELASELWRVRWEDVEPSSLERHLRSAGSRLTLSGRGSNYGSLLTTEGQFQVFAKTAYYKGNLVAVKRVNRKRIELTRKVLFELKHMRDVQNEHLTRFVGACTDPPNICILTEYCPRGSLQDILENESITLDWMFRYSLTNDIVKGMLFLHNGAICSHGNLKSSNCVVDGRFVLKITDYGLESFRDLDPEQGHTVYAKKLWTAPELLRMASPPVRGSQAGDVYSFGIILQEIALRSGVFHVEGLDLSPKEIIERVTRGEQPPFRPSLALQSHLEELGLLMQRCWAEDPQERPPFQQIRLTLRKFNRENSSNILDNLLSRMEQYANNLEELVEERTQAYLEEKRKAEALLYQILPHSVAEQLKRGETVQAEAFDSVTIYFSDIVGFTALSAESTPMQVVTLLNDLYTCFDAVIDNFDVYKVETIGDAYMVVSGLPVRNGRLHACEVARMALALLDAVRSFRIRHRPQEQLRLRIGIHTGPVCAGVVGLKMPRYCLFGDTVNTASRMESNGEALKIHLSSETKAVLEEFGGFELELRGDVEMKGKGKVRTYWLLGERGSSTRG

[3] = biological target: T3, human NPRA (human, UniProt P16066 33-1061); remark: listed apart in the source
T3 sequence (looked up): T2 sequence (looked up)

[4] = biological target: T4, rat NPRA (rat, UniProt P18910 29-1057); remark: listed apart in the source
T4 sequence (looked up): T1 sequence (looked up)

Binder	cGMP Assay (EC50, pM) w/BSA [1]	cGMP Assay (EC50, pM) w/Casein [1]	cGMP Assay (EC50, pM) w/BSA [2]	cGMP Assay (EC50, pM) w/Casein [2]	cGMP Assay (EC50, pM) w/BSA, hNPRA [3]	cGMP Assay (EC50, pM) w/BSA, rNPRA [4]	cGMP Assay (EC50, pM) w/Casein, rNPRA [4]	cGMP Assay (EC50, pM) w/Casein, hNPRA [3]
B1	480000 pM	4070 pM	54700 pM	807 pM	–	–	–	–
B2	43200 pM	693 pM	17100 pM	460 pM	–	–	–	–
B3	–	–	–	–	3490 pM	–	–	–
B4	–	–	–	–	4330 pM	187000 pM	9630 pM	741 pM
B5	–	–	–	–	4470 pM	312000 pM	2630 pM	527 pM

Source: patent US20240174727A1, “LONG-ACTING NATRIURETIC PEPTIDES AND USES THEREOF” (Eli Lilly and Company, priority 2022, published 2024)
